Measurements reported in the DeepSol protein solubility set.

Test: soluble on expression in E. coli; label from the status in PepcDB or PDB records

Row | Sequence | soluble on expression in E. coli
1 | MAHHHHHHMAANEGNQSCMDALSSITFAQLAGPLQPVYGPSRVPRHQQFVDLVTDSSGMSPFIPFGTQGSANSSTAFPVDNAYLSKRAPPESEGQNRAAYYNNSSASMQTPEKVDKPQMLRQVSVGAPTPSSGMGMTASPATVCRYITHATPGSALLDETCTRTYLRSAPMNFVASTGITTDNAIGAVSNAVLSAAAAALPSVKVSIDDKPTSLAIELEQAYEEHVHESKRRVGDKVKRKEKKVLVTVGFPGVDNVPQMISDGTEEQLLNKEEVEQGKRRRERRQSRGKNKQKGDNNNNNCIFHDGDKFVSNFSSIHADNESHGECGDRKFLVTLRCHGHRDVTAICCLRLSKGKYVIFEADRGVDLGEVINVKELISEPSGNSAPAQVLRCALDEEVEDWKGPLVERENEAVEECRHVCEQLGLTIRVVGAAYQFDRQKLTFMYESDDRVDFRALLQVMFSKFRCRIWMERRGRGHQDNDAHTG | not soluble
2 | MAHHHHHHMADLRDELDATALFGSGYVCIVGPPSSGKTTLILEYLVARERQAVHSGDGDAAAFCMEYVSARSAPHELLRHLTYRLLPHARRRRLSYECTPLEFSASLVEWVEAHPGQSELHLVVDDADALEYSAEEMNLWLSHYLRAPAEQRCTVILWLISELPLRLSNCFRYHFIARPEANSIVQWLHHQFEEERRLLAGLESEEDDSEHTVNGAPMTTLSADEVNRVVLDAFTYYATHQPMCSSVVSRDVRLLVQRVYQILPPLLLEVAATTSAVPGESGEAAVSASTTADAVKKLNARHFAAAWSQYRSDGGGGTSSAMAVSGAAASAQNTLVMALKRLGYSAVLLAFAAFYGGAVPKRQQHQVFGRIGSGERQPPLHEAKGQSHKAAVLTASAHVVTLRRLGFLYDAMLRMCTPHIDPLEFTTADVALQYVQGFVAWGLLTPVVSQRHRSYHCWIPVSTAPAVGA | not soluble
3 | MAHHHHHHMAEDTITFLRTVGKLKETDRTGWVEHGIPNPESVSDHMYRVAVMCMMCPDEKLDRNKLIRMALCHDAGESIVGDISPKMGVSKEDKYNQEKAAVLHLTGLLEKESPLSRELHELWEEYEAQHTPEAQFLKDIDLLEMVAQAHAYELAHPKKDLSSFFVSGEKIKHPWARNIYETLLRTRSSEK | soluble
4 | MAHHHHHHMAKAIGDGDTGDAWWANPEHLAAIDATAAAEAVVSVPHQPEKNTGTGCSSRITAMRYYMKPDTWTQTLLSDEGETARENRTDGEVPHSGSASTGAVTSSDPRGCNSDAHVHHQATSSLLSTASSVVTTTATEEASSLPAASSPLHGLPLHQLIEQHAALVRRLVQVLAPQRQTIPHVIRELCTTRVTSPSSAVASRVCVLPSMDASNAEPMQYTERDVAAAVEQLTSSHPRQPRLRELKSDGYLLMNLEGFADGKTRHKAVNRAYPALALHWPASVQQMDAMERYVDRDVVLDTRKRHPELSGEGSDKKQGQKRDRSRSSTSSNASGADEDGAHKARAPGYTSSPPSPPLGMAASPKRTAPTTSSRRFFQSLREYPRSLEHGDLHAWARGTAAQQARDCLQAATTLTQSSTSTVDGSSDAATLGPLPITNEEDVAVLRCQYDALAAAESVVEKQLRAYSDTVQELRGWYRGELCTQQFRYELEAWLRTQEESRAVLTDLYAQMHAMRYSLQRDLSNYLHLHALGVL | soluble
5 | MAHHHHHHMAKVKMNPKLSSFTANAYEKKRQVGMYSKYIVDANPSGKDPSSSQTNKGNEYEEEDIVEKLRKREQSKQGGDYFMNAYKYTQPSAIIDYSSGEEQEYSQLLKKPKCPQCGVKNCVCGFMRSGGRRAR | soluble
6 | MAHHHHHHMALEIDIDNVISKLIEVRGTRPGKNVNLTENEIKILCLSSREIFLNQPILLELEAPIKICGDIHGQFYDLLRLFEYGGFPPDANYLFLGDYVDRGKQSLETICLLLAYKIKYPENFFLLRGNHECASINRIYGFYDECKRRYSVKLWKTFIDCFNCLPVAAIIDEKIFCMHGGLSPELNNMEQIRKITRPTDVPDNGLLCDLLWSDPEKEINGWGENDRGVSFTFGQDVVHNFLRKHELDLICRAHQVVEDGYEFFAKRQLVTLFSAPNYCGEFDNAGAMMSVDETLMCSFQILKPVEKKKAAN | not soluble
7 | MAHHHHHHMAQNPWFVKKSKTLRTSQLEKFINKFNEEYEHLMHMTRFKYIKRTLESIKENSDLIINKKTFSILRISCVAQLQPKYLNKIDDGISVYLSNFMLKANHDVEGFCLCFNKIKLKEKESRVMNNDPSIMFVKISFKLLILVLKENYEIKAKINKIEPLKIHLDIFGIVEAIFSEDMFKDFHYDSRNNRFRREGKFFSLYDIVLFTIKKITYGDNGANVKVIGYF | not soluble
8 | MAHHHHHHMASGGSVIGVKYNGGVLLACDTLLSYGSLAKWPNIPRMKLVGAYTVMCATGDYADFQEMTTMIENHVNRQQMYGGGALTPNEVFCYLQRHVYHKRSQFEPCLCRFVVAGCHGGEPFLGGVDDVGTRWTDDCVAAGYGAYIALPLLRQALEKPGGLTREEAIRVIKDCLRVLFYRECRAINKFQIADATSDMVSIGEPFEVETNWEYDGFCFEKTAIIR | not soluble
9 | MAHHHHHHMCLLIIEHLFYSPCTVTTVLSLKLFGGGEKTGKMSDVPKSQVGTDAKVAVAKKYTGEYYVKGMVGDKKSFAIEHSRGRQKKHTVNEFCVGDAIGRGAFAEVFQCWRPEEPHIVYAMKKIRKDLIVKRKQSLNVHTERDLLSDAKLRQKRVSCPWITDLVVAFQDQDFLYIVTEYCSGGDLISWLIRYDVFPEETARFYFVELVLALNALHKMGYVHRDVKPDNVLIDREGHVKLADFGLSKRDPDQAESTSVADDSYLTEDVTVDDDVKKRFRDKKERKVMFFSTVGSPAYIAPEVLIGRGYDYSCDWWSAGVILYEMIFGYPPFFNDNNTATAKKIIQFKEHLEFPKDQTTVSKEAIDLISHLIADSKERYGFEEIIRHPFCKGVPLTDSIRNEKAPFSVELNSPRDLQYFEPAPDNADIQKQPMTAVSREDQSVFVGFTSKLCDRNQSTTWSRALGRFHELQNFSDDD | not soluble
10 | MAHHHHHHMDAERGCRQCGQQGHSASQCRIKKYLCRDCGGMHDTRDCIFSHVGEDWYEFYDPKTRHVYYANSDESQIQWNPPTHELDTIYWYCSRCQVMISAKFRECLLCHSIRPESKQQETLTTDSNSDSSSSSSTSSSSSSTDTSCISRSSSSSGSASSSDSSSNDDDKRSAAGRLRDRAP | soluble
11 | MAHHHHHHMDYYRLLADIGHTYLQLIPSTAHVEKVTGLAARYCIFTITHTQMLLHCLMLWKEARLGDGGGFIDYAKVRNLKICSGAAEHTAQSNADAHSSNEGKQKWRTIDRTASLLFTLQLLEANCRYYCLVFLANYCALLLRSYSCLTDQRKVNRVHANVVEHLDMVSRLVLDLAEEYPNEYLSRLIMANLPKPSNFDRECLSSMGASSHMGSQKILSFGNDQHRHLYASGYPWSPTQSALIPLILARTVRLTVQENVSRHSQAQLRSPAERLSYHYTRWHFNSGLVIVPGCSLYMLKKSLPGFVPGKSTFAHYATMAEHEELHVPRAAADVHWQRGSAAVPVPEDGGGAAPGSHRNPRKSEDSADAEKREALTKKCEERLIKKRRHINTDLHLSDERTCVALCLEEACALALPSLLLSCVLQKATREPHFREFMNNAMNLVLGLYGPASSEWHMMASFLRKHLEG | not soluble
12 | MAHHHHHHMEDGVIISGDYIQMEKDKVKRINEHNFEQVHDVESDNLYRSKCSGILLKTPYYPYKYDIMNTSYKYMPKVGDLVIGIVKSKKLDYYQMDINCNCECIIHKIESFKYATKNSFPNLANGTLLYMIVEKINLDNNSVVASCINSSDVKSWINYENYLGELVDGYMFPVSISYAKSLIGDKCYLLDLIGADVSYEVAVGHNGR | not soluble
13 | MAHHHHHHMEKYKNILEKLEWYKNKSSEKYEFGIYEIDKREVFITTKYSYGFVNNKPLLPGHILLTTLKKKKHYNDLDIEEIIDINLLCNFMCYIMGNLFNTTDFSIAIQDGKEAGQTVDHVHIHIIPRKINDYKNNDNIYNDMNKINLGYGKNIICNSCNNTINVCSQNEIERNFKLEEFNTSIRSIEQMEEEANLIKSYINEKFSS | not soluble
14 | MAHHHHHHMELEEFWLTDGSISDWGEVKKFCGFANTLRTIYVERNPIEQDKRYRDKVYMNLPFVTQIDSWPVVNKDNLEGDRLIQRRAS | soluble
15 | MAHHHHHHMELNKLCSFLLRGNISHCENAPTGENAPKGENAQTGENAPKSENPPKSEHSQALFQDASGGKNNDSILDVIKKIPINPFIDSNEDLNKYKYGVEKKKIQRYTGVQVYEEEDKDHKKNQPVDYPFPVSKSVVFEKNKVNKSEDRININYSNIASDLYPEEGFKTPNRKKHFSSDWEMLLAHNHGLYNFKNTDHNTIVNKDMYALNTENDIRNKLNLYVERINVDNPNDACKYLAIEEYKCLLTHSFHMNPDVSNQKCVKWFNEYMQCKWDEHKLNYGYNYIENRRNKKSKAYIAAPDYQYS | not soluble
16 | MAHHHHHHMENHKDDAVLLKHGWCEMLKGGVIMDVKSVEQAKIAEEAGAIGVMVLENIPSELRNKEGVARSVDPSKVEEIKKCVSINVLAKVRIGHFVEAQILEELKIDMIDESEVLTIADEMHHIDKHKFKTPFVCGCTNLGEALRRISEGASMIRTKGEAGTGNIIEAIKHIRTVNNEIKYLCSLSDSEVYHFAKKINAPIDLVLLTKKLKRLPVVNFAAGGVATPADAAMCMQLGMDGVFVGSGIFESENPRKMAASIVSAVSNFNNPKILLDVSMNLGKAMCGSTRVSDKWKNKNEEHTKFLTPQ | not soluble
17 | MAHHHHHHMEREKHENMLMAIARDFNSVDDLIETFLTFLENKTDYFHVMLNDKDVETLSEKYDGAILKNLLNNNNCGFKAHSREQLLIKSFRKHQINYIMRKQPYIIENEEIKNKYLTSCDELKKIKYMPTTKDMNKEKQENSTKVNSDVHSLNVTQENHISIWNGGKTDKYYWNQALKEINLEMPFNEEIKPNDVNVQITNTNIKIYHCGVLKLEGMFYEEVDKQECVWSIEDKKNIIIYLEKKRENWWPCVIKGDTEIDTKNIESKKNLTDFDEKTQGQIRKFLLEQRMKNEGIPTPEDLRKQNIINNVLSSKGEPFGR | not soluble
18 | MAHHHHHHMERVRYRSSVTRKLIDLYDEVAELYDCRENMRNQVTQAMRIDPRYCKERHGEVRLACKPTLQQQSAVESVENALEGLHDAVHELVAAYLTQEEKRHLGIDTHLFQTSTEKANTYQYAPPPPKPRSSSSNAARRARQKTSAAATFPHPSTRHREVRVEKEEGDAHENTAATAPTPAAPTLTVPVDTPAPQQQPLTNTTTNKKISNSVWDSSAPAASAAFSSAAISLPASSVKLAQQSVVELSQLAAPQQPVTSSSQPLCSSIVHVAAPEKHEDGSGTAAEQKPVAASHTQDTEIAEGTPERVVASAVSASTLSVTWPTDTGAGSTLHLPTGSQPPLATERLLKVPVSSPDALTPIAKTPPAIPPRPTSVQAQAQEPALTSANPTPPPSHPPSQDAVAASCNDASAAKASASQARTAVVGFKRFLIDSDSNSSC | soluble
19 | MAHHHHHHMESPQVAELNEDIVELNKLLAQAVRENVKEKIKKCIENTTVEIAKLKLEESQTPNKITEKNTPLNDSNISYNSVQSFAWNQEGNKVTVFLTVKDIHTIDKEKISAEFNERNFEVKMHQVNKKNYRFCVKKLHEKIVPGKCSFKVKKDALHVYLIKQDQKYWDNLHFKESPMSKIRAPKMDEQAEPSTMLMNMMKQLYQEGDSDMKRTIAKAWCEANEKKSDFSVPNF | soluble
20 | MAHHHHHHMEVEWDSETVTKFYNYLCGTISYQNCVELEKDLRIETGTEEKLNKHSCSSCSDHHGDVNISCFKFKKDDDDVLGEILDSEKDQENVKASLAEITQKAFTIYSNVIAKAASKGDNKVTLETDHFLRSDILRLVFSKYITTKAKERITEISSKSTKNIVTLANPLNMNEHDLNKIETDTIANLMHDYVGLQKNFLGRDYTKLIFDELVFIEYNNQFNSFGREYKNVRTDFYCWTYITSLDRQKQRGLYKLLKELSLLPYELNKKANLSLQIGTLFQFLYFSPNKSYLKKHCQGGYGKMDNGKKVTCIYVPFVHSNDDVEIKLYRSEYNGVNEESEESEGRGKTEPNVRDATTVPSNQTDDGAPFRVIKPESDSLIFLQTRNVSYEISKTKNKFFTVNFSISGPVSTERRL | not soluble
